Measured values published in patent US20190077860A1 (EISAI R AND D MANAGEMENT, published 2019).
Substitutions are numbered along the chain they refer to.

B1: humanized antibody No. 153 (antibody, human IgG2)
heavy: QVQLVQSGSELKKPGASVKVSCKASGYTFTDYSMHWVRQAPGQGLKWMGWINTETGEPTYAQGFTGRFVFSLDTSVSTAYLQISSLKAEDTAVYYCARIPLYYYGSRYWYFDVWGQGTTVTVSSASTKGPSVFPLAPSSRSTSESTAALGCLVKDYFPEPVTVSWNSGALTSGVHTFPAVLQSSGLYSLSSVVTVPSSNFGTQTYTCNVDHKPSNTKVDKTVERKSCVECPPCPAPPAAAPSVFLFPPKPKDTLMISRTPEVTCVVVDVSHEDPEVQFNWYVDGVEVHNAKTKPREEQFNSTFRVVSVLTVVHQDWLNGKEYKCKVSNKGLPAPIEKTISKTKGQPREPQVYTLPPSREEMTKNQVSLTCLVKGFYPSDIAVEWESNGQPENNYKTTPPMLDSDGSFFLYSKLTVDKSRWQQGNVFSCSVMHEALHNHYTQKSLSLSPG
light: DIQMTQSPSSLSASVGDRVTITCRASENIYRNLAWYQQKPGKAPKLLLYAATNLADGVPSRFSGSGSGTDYTLTISSLQSEDFATYYCQHFWGTPWTFGQGTKVEIKRTVAAPSVFIFPPSDEQLKSGTASVVCLLNNFYPREAKVQWKVDNALQSGNSQESVTEQDSKDSTYSLSSTLTLSKADYEKHKVYACEVTHQGLSSPVTKSFNRGEC
notes: human Ig kappa; also called L1-5/HA2
B2: humanized antibody No. 154 (antibody, human IgG2)
heavy: B1 heavy with K46E, Q62D, G63D, T65K
light: B1 light
notes: human Ig kappa; also called L1-5/HK1
B3: humanized antibody No. 155 (antibody, human IgG2)
heavy: B1 heavy with V2I, Q62D, G63D, T65K
light: B1 light
notes: human Ig kappa; also called L1-5/HK4
B4: humanized antibody No. 156 (antibody, human IgG2)
heavy: B1 heavy with V2I
light: B1 light with K45Q, S80P
notes: human Ig kappa; also called L1-6/HA4
B5: humanized antibody No. 157 (antibody, human IgG2)
heavy: B1 heavy with K46E
light: B1 light with K45Q, S80P
notes: human Ig kappa; also called L1-6/HA1
B6: humanized antibody No. 158 (antibody, human IgG2)
heavy: B1 heavy
light: B1 light with K45Q, S80P
notes: human Ig kappa; also called L1-6/HA2
B7: humanized antibody No. 159 (antibody, human IgG2)
heavy: B1 heavy with Q62D, G63D, T65K
light: B1 light with K45Q, S80P
notes: human Ig kappa; also called L1-6/HK2
B8: humanized antibody No. 160 (antibody, human IgG2)
heavy: B1 heavy with V2I, Q62D, G63D, T65K
light: B1 light with K45Q, S80P
notes: human Ig kappa; also called L1-6/HK4
B9: humanized antibody No. 134 (antibody, human IgG2)
heavy: B1 heavy
light: EIVMTQSPATLSVSPGERATLSCRASENIYRNLAWYQQKPGQSPRLLIYAATNLADGIPARFSGSGSGTEYTLTISSLQSEDFAVYYCQHFWGTPWTFGQGTKVEIKRTVAAPSVFIFPPSDEQLKSGTASVVCLLNNFYPREAKVQWKVDNALQSGNSQESVTEQDSKDSTYSLSSTLTLSKADYEKHKVYACEVTHQGLSSPVTKSFNRGEC
notes: human Ig kappa; also called L2-4/HA2
B10: humanized antibody No. 132 (antibody, human IgG2)
heavy: B1 heavy with V2I
light: B9 light
notes: human Ig kappa; also called L2-4/HA4
B11: humanized antibody No. 133 (antibody, human IgG2)
heavy: B1 heavy with K46E
light: B9 light
notes: human Ig kappa; also called L2-4/HA1
B12: humanized antibody No. 135 (antibody, human IgG2)
heavy: B1 heavy with K46E, Q62D, G63D, T65K
light: B9 light
notes: human Ig kappa; also called L2-4/HK1
B13: humanized antibody No. 136 (antibody, human IgG2)
heavy: B1 heavy with Q62D, G63D, T65K
light: B9 light
notes: human Ig kappa; also called L2-4/HK2
B14: humanized antibody No. 137 (antibody, human IgG2)
heavy: B1 heavy with V2I, Q62D, G63D, T65K
light: B9 light
notes: human Ig kappa; also called L2-4/HK4
B15: humanized antibody No. 94 (antibody, human IgG1, kappa)
heavy: QVQLVQSGSELKKPGASVKVSCKASGYTFTDYSMHWVRQAPGQGLKWMGWINTETGEPTYAQGFTGRFVFSLDTSVSTAYLQISSLKAEDTAVYYCARIPLYYYGSRYWYFDVWGQGTTVTVSSASTKGPSVFPLAPSSKSTSGGTAALGCLVKDYFPEPVTVSWNSGALTSGVHTFPAVLQSSGLYSLSSVVTVPSSSLGTQTYICNVNHKPSNTKVDKRVEPKSCDKTHTCPPCPAPPAAAPSVFLFPPKPKDTLMISRTPEVTCVVVDVSHEDPEVQFNWYVDGVEVHNAKTKPREEQFNSTFRVVSVLTVVHQDWLNGKEYKCKVSNKGLPAPIEKTISKTKGQPREPQVYTLPPSREEMTKNQVSLTCLVKGFYPSDIAVEWESNGQPENNYKTTPPMLDSDGSFFLYSKLTVDKSRWQQGNVFSCSVMHEALHNHYTQKSLSLSPG
light: B9 light
notes: as for B9
B16: humanized antibody No. 71 (antibody, human IgG1, kappa)
heavy: B15 heavy with V2I
light: B9 light
notes: as for B10
B17: humanized antibody No. 73 (antibody, human IgG1, kappa)
heavy: B15 heavy with V2I, Q62D, G63D, T65K
light: B9 light
notes: as for B14
B18: humanized antibody No. 93 (antibody, human IgG1, kappa)
heavy: B15 heavy with K46E
light: B9 light
notes: as for B11
B19: humanized antibody No. 95 (antibody, human IgG1, kappa)
heavy: B15 heavy with K46E, Q62D, G63D, T65K
light: B9 light
notes: as for B12
B20: humanized antibody No. 96 (antibody, human IgG1, kappa)
heavy: B15 heavy with Q62D, G63D, T65K
light: B9 light
notes: as for B13

What was measured:
[1] = target: T1, human EphA4 extracellular region-SEAP-His protein (human, UniProt P54764 20-547); assay: SPR, Ab captured
T1 construct: also called hEphA4-SEAP-His
Experimental: The binding affinity of each anti-EphA4 monoclonal humanized antibody obtained in Example 16 for human EphA4 was determined by surface plasmon resonance (SPR) using Biacore T200 (GE Healthcare). First, for the assay of antibody A, a rat anti-mouse IgG₁ antibody produced with a conventional method by immunizing rat with mouse IgG₁ antibody was immobilized on sensor chip CM5. The immobilization of the rat anti-mouse IgG1 antibody on sensor chip CM5 was performed by the amine coupling method using N-hydroxysuccinimide (NHS) and N-ethyl-N′-(3-dimethylaminopropyl)carbodiimide hydrochloride (EDC). Ethanolamine was used in blocking (the sensor chip and the reagents for immobilization were all manufactured by GE Healthcare). The antibody was diluted with a buffer solution for immobilization (10 mM sodium acetate, pH 4.5) and immobilized on the sensor chip according to the protocol attached to Biacore T200. For the assay of each humanized monoclonal antibody, a protein A chip (GE Healthcare, 29-1383-03) was used. Antibody A or the humanized monoclonal antibody was diluted with a running buffer solution HBS-EP (GE Healthcare), injected onto only flow cell 2 for 120 seconds, and captured (captured amount: approximately 30 to 60 RU). Subsequently, human EphA4 extracellular region-SEAP-His protein serially diluted in the range of 50, 16.7, 5.6, 1.9, and 0.6 nM using HBS-EP was sequentially added from the lower toward higher concentration sides without regeneration operation. Binding reaction curves were sequentially observed at the time of the addition (association phase, for 120 sec) and after the completion of the addition (dissociation phase, for 900 sec). After the completion of each observation, the sensor chip was regenerated by the addition of 3 M MgCl₂ (for 60 sec) or 10 mM Glycine-HCl pH 1.5 (for 30 sec). The obtained binding reaction curves were subjected to fitting analysis with 1:1 binding models using software BIA evaluation attached to the system to calculate the affinity (KD=kd/ka) for human EphA4 (Table 6).

[2] = target: T1, human EphA4 extracellular …; assay: competition ELISA, competitor human Ephrin A5-Fc
Experimental: Each anti-EphA4 monoclonal humanized antibody obtained in Example 16 was evaluated for its inhibitory activity against the binding between human EphA4 and its human ligand according to the following steps. Each well of a 96-well plate (Nunc) was coated with an anti-alkaline phosphatase antibody (Thermo Fisher Scientific). After incubation overnight at 4° C., each well was blocked with 1% BlockAce (DS Pharma Biomedical) at room temperature for 1 hour. After washing with 0.05% Tween 20/PBS (Thermo Fisher Scientific) three times, the human EphA4 extracellular region-SEAP-His protein obtained by the method of Example 2 was added (final concentration: 10 nM) to each well and incubated at room temperature for 1 hour. After washing three times, a ligand and each serially diluted humanized antibody of antibody A (0, 0.003, 0.01, 0.03, 0.1, 0.3, 1, 3, 10, 30, 100, 300, 1000, and 3000 nM) were added to each well. The ligand used was biotinylated human Ephrin A5-Fc chimera (R&D Systems, final concentration: 0.7 nM). After incubation at room temperature for 1 hour and subsequent washing three times, horseradish peroxidase-labeled streptavidin (GE Healthcare) was added thereto and incubated at room temperature for 1 hour. After washing three times, a TMBZ (3,3′,5,5′-tetramethylbenzidine, Sigma-Aldrich) solution was added to each well and incubated at room temperature for 2 minutes. An equal amount of a reaction stopping solution (1N H₂SO₄, Wako Pure Chemical Industries) was added to each well. The absorbance at 450 nm was read using a microplate reader (PerkinElmer).

T1 sequence (P54764 20-547): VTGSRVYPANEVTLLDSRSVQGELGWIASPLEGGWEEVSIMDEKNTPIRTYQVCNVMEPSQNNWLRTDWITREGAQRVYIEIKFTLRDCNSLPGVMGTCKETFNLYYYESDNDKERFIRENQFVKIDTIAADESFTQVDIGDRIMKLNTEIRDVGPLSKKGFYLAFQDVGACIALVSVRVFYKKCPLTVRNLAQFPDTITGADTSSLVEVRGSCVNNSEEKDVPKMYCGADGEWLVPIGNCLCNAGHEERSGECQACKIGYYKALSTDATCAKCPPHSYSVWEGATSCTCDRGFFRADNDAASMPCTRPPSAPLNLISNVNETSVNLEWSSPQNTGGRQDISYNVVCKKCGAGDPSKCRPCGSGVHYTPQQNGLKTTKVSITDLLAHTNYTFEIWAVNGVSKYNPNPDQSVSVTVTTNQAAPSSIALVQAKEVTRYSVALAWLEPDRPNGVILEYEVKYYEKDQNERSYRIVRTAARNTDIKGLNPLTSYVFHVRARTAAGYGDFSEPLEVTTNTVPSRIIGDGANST

Binder	Kd [1]	koff [1]	kon [1]	IC50 [2]
B1	2.1 nM	0.0006 s⁻¹	290000 M⁻¹ s⁻¹	2.3 nM
B2	2.2 nM	~0.00085 s⁻¹	390000 M⁻¹ s⁻¹	2.5 nM
B3	1.9 nM	0.00064 s⁻¹	330000 M⁻¹ s⁻¹	2.4 nM
B4	1.6 nM	0.00056 s⁻¹	310000 M⁻¹ s⁻¹	2.5 nM
B5	2 nM	0.00068 s⁻¹	350000 M⁻¹ s⁻¹	2.6 nM
B6	1.9 nM	0.00061 s⁻¹	310000 M⁻¹ s⁻¹	2.8 nM
B7	2 nM	0.00061 s⁻¹	310000 M⁻¹ s⁻¹	2.6 nM
B8	1.9 nM	0.00061 s⁻¹	320000 M⁻¹ s⁻¹	2.2 nM
B9	1.2 nM	0.00032 s⁻¹	280000 M⁻¹ s⁻¹	3 nM
B10	1.2 nM	0.00031 s⁻¹	270000 M⁻¹ s⁻¹	3.1 nM
B11	1.1 nM	0.00032 s⁻¹	300000 M⁻¹ s⁻¹	3 nM
B12	1.3 nM	0.0004 s⁻¹	320000 M⁻¹ s⁻¹	2.5 nM
B13	1.4 nM	0.00039 s⁻¹	290000 M⁻¹ s⁻¹	2.5 nM
B14	1.3 nM	0.00039 s⁻¹	290000 M⁻¹ s⁻¹	2.5 nM
B15	0.95 nM	0.00024 s⁻¹	260000 M⁻¹ s⁻¹	2.7 nM
B16	0.82 nM	0.00023 s⁻¹	280000 M⁻¹ s⁻¹	2.5 nM
B17	0.93 nM	0.00027 s⁻¹	290000 M⁻¹ s⁻¹	2.4 nM
B18	0.77 nM	0.00024 s⁻¹	310000 M⁻¹ s⁻¹	2.5 nM
B19	1 nM	0.00031 s⁻¹	300000 M⁻¹ s⁻¹	3.1 nM
B20	1.1 nM	0.00031 s⁻¹	270000 M⁻¹ s⁻¹	3.7 nM
